Source: patent publication US20220298254A1 (HUMMINGBIRD BIOSCIENCE HOLDINGS PTE, published 2022)
Changes are numbered by the printed parent chain. Where two headings read alike, the source gives them in different places.

B1: anti-CD47 clone 1-1-A1 IgG1 (antibody, V domains shown)
VH: EVQLQQSGPDLVKPGASVKMSCKASGYTFTNYVIHWVKQKPGQGLEWIGYINPYNDGTKSNEKFKGKATLTSDKSSTSAYMELSSLTSEDSAVYYCASGGYYTMDYWGQGTSVTVSS
VL: DVVMTQTPLSLPVSLGDQASISCRSSQHLEYSNGYSYLHWYLQKPGQSPQLLIYKISNRFSGVPDRFSGSGSGTDFTLKISRVEAEDLGVYFCSQSTHVPYTFGGGTKLEIKR
B2: 11A1H4-IgG1 (antibody, V domains shown)
VH: QVQLVQSGAEVKKPGASVKVSCKASGYTFTNYVIHWVRQAPGQGLEWMGYINPYNDGTKYNQKFKGRVTLTSDTSTTTAYMELSRLRSDDTAVYYCASGGYYTMDYWGQGTLVASTK
VL: B1 VL with T7S, S14T, D17Q, Q18P, L42Q, K44R, Q50R, L88V, F92Y, L109V
notes: Humanised version of clone 1-1-A1, IgG1/kappa; also called 1A11H4
B3: 11A1H3-IgG1 (antibody, V domains shown)
VH: B2 VH with I34M, Y60S, Q62E, K65Q, T77S, R85S, D89E
VL: B1 VL with T7S, S14T, D17Q, Q18P, L42Q, K44R, Q50R, L88V, F92Y, L109V
notes: Humanised version of clone 1-1-A1, IgG1/kappa; also called 1A11H3
B4: 11A1H6-IgG1 (antibody, V domains shown)
VH: B2 VH
VL: DVVMTQSPLSLPVTLGQPASISCRSSQHLEYSQGYSYLHWYQQRPGQSPRLLIYKVSNRDSGVPDRFSGSGSGTDFTLKISRVEAEDVGVYYCSQSTHVPYTFGGGTKVEIKR
notes: Humanised version of clone 1-1-A1, IgG1/kappa; also called 1A11H6
B5: anti-CD47 clone 1-1-A1_BM IgG1 (antibody, V domains shown)
VH: B1 VH with E1Q, V12K, M20V, A24V, K38R, I48M, S91T
VL: B1 VL with S14T, L42Q, K44R, F92Y
B6: 11A1H10-IgG1 (antibody, V domains shown)
VH: B2 VH with N31G, D56G, K59N, N61A, D89E, A114T, S115V, T116S, K117S
VL: B4 VL with Q33N
notes: Humanised version of clone 1-1-A1, IgG1/kappa; also called 1A11H10
B7: 11A1H9-IgG1 (antibody, V domains shown)
VH: B2 VH with N31G, D56G, K59N, N61A, D89E, A114T, S115V, T116S, K117S
VL: B4 VL with Q33T
notes: Humanised version of clone 1-1-A1, IgG1/kappa; also called 1A11H9
B8: 11A1H5-IgG1 (antibody, V domains shown)
VH: B2 VH with N31G, D56G, K59N, N61A, D89E, A114T, S115V, T116S, K117S
VL: B4 VL with Q33N, V56I, D60F
notes: Humanised version of clone 1-1-A1, IgG1/kappa; also called 1A11H5
B9: 11A1H7-IgG1 (antibody, V domains shown)
VH: B2 VH with N31G, D56G, K59N, N61A, D89E, A114T, S115V, T116S, K117S
VL: B4 VL
notes: Humanised version of clone 1-1-A1, IgG1/kappa; also called 1A11H7
B10: 11A1H11-IgG1 (antibody, V domains shown)
VH: B2 VH with N31G, D56G, K59N, N61A, D89E, A114T, S115V, T116S, K117S
VL: B4 VL with Q33N, V56I, D60F, S96G
notes: Humanised version of clone 1-1-A1, IgG1/kappa; also called 1A11H11

Assays:
[1] = molecular target: T1, human CD47 (recombinant protein, construct not stated) (human, UniProt Q08722 19-141); assay: BLI (BLItz), IgG1 captured on anti-human Fc tips, human CD47 as analyte, 1:1 global fit
T1 construct: also called hCD47; human CD47 protein
Procedure: Bio-Layer Interferometry (BLI) experiments were performed using a single channel BLItz system (ForteBio, Menlo Park, Calif.) using Anti-human immunoglobulin G (IgG) Fc (AHC) coated biosensor tips (Pall ForteBio, Menlo Park, Calif.) for capturing human IgGs. Biosensors were first hydrated for at least 10 m in assay buffer (phosphate buffered saline) followed by buffer baseline for 30 s and loading of the human IgGs onto the biosensor tips at concentrations ranging from 25-50 nM for 120 s. The tips were then washed briefly for 30 s with the assay buffer to remove nonspecifically bound proteins or unbound IgGs for obtaining a second buffer baseline. […] All the BLITz runs were measured at room temperature at a stirring speed of 1000 rpm and AHC biosensors were regenerated using 10 mM of glycine (pH 2.7) after the assay. Binding affinity between the immobilized antibodies on the AHC sensors and human CD47 were determined by analyzing the binding kinetic curves using the software BLItz Pro. All the sensorgrams were reference subtracted and globally fitted into a 1:1 model which analysed the binding curves at different concentrations of antigens and generated kinetic constants (KD/Ka/Kd) for the globally fitted data. […]
(§1) The anti-CD47 antibody clones in IgG1 format were analyzed for binding affinity to human CD47.

[2] = molecular target: T1, human CD47 (recombinant protein, …); assay: BLI (BLItz), IgG captured on anti-human IgG Fc (AHC) tips, human CD47 as analyte, global 1:1 fit
Procedure: (§2) Bio-Layer Interferometry (BLI) experiments were performed using a single channel BLItz system (ForteBio, Menlo Park, Calif.) using Anti-human immunoglobulin G (IgG) Fc (AHC) coated biosensor tips (Pall ForteBio, Menlo Park, Calif.) for capturing human IgGs. Biosensors were first hydrated for at least 10 m in assay buffer (phosphate buffered saline) followed by buffer baseline for 30 s and loading of the human IgGs onto the biosensor tips at concentrations ranging from 25-50 nM for 120 s. The tips were then washed briefly for 30 s with the assay buffer to remove nonspecifically bound proteins or unbound IgGs for obtaining a second buffer baseline. The association phase of the IgGs with antigens (500 nM-0 nM) was set up at 120 s which was followed by a dissociation phase (assay buffer alone) for 120 s. All the BLITz runs were measured at room temperature at a stirring speed of 1000 rpm and AHC biosensors were regenerated using 10 mM of glycine (pH 2.7) after the assay. Binding affinity between the immobilized antibodies on the AHC sensors and human CD47 were determined by analyzing the binding kinetic curves using the software BLItz Pro. All the sensorgrams were reference subtracted and globally fitted into a 1:1 model which analysed the binding curves at different concentrations of antigens and generated kinetic constants (KD/Ka/Kd) for the globally fitted data. All the binding curves were subjected to step correction which corrects the misalignment between association and dissociation steps and only the curves with R² values greater than 0.9 were used for analysis.
as §1

[3] = molecular target: T1, human CD47 (recombinant protein, …); assay: ELISA on coated human CD47
Procedure: (§3) 96-well plates (Nunc, Denmark) were coated with 1 μg/ml of human CD47 or VISTA protein in PBS, for 1 h at room temperature. Plates were blocked for 1 h at room temperature with 1% BSA in Tris buffer saline containing 0.05% Tween 20 (TBS-T). The test antigen-binding molecules were added at concentrations ranging from to 0.002 μg/ml to 200 μg/ml, and the plates were incubated at room temperature for 1 h. Plates were then washed three times with TBS-T, and were then incubated with a HRP-conjugated secondary antibody for 1 h at room temperature. After washing, plates were developed with colorimetric detection substrate 3,3′,5,5′-tetramethylbenzidine (Turbo-TMB; Pierce, USA). The reaction was stopped after 3.5 min with 2M […], and OD was measured at 450 nm.

human VISTA protein = human VISTA protein (human, UniProt Q9H7M9 33-194, limits assumed); assay: ELISA on coated human VISTA protein
Procedure: as §3
In a separate ELISA, the antigen-binding molecules were evaluated for binding to human VISTA.

[4] = molecular target: T2, untagged human CD47 protein (Sinobiological Inc) (human, UniProt Q08722 19-141); assay: competition ELISA: inhibition of His-tagged SIRPα binding to coated human CD47
T2 construct: Bought

[5] = molecular target: T1, human CD47 (recombinant protein, …); assay: BLI (BLItz), IgG1 captured on anti-human Fc tips, human CD47 as analyte, 1:1 global fit; remark: listed apart in the source
Procedure: as §2, with “Biosensors” for “Bio-Layer Interferometry (BLI) experiments were performed using a single channel BLItz system (ForteBio, Menlo Park, Calif.) using Anti-human immunoglobulin G (IgG) Fc (AHC) coated biosensor tips (Pall ForteBio, Menlo Park, Calif.) for capturing human IgGs. Biosensors”, “60” for “30”, “25” for “concentrations ranging from 25-50”, “(250 nM to 62.5” for “(500 nM-0”

his-tagged human CD47 [6] = molecular target: T3, his-tagged human CD47 (human, UniProt Q08722 19-141); assay: BLI, his-tagged human CD47 on anti-Penta-HIS (HIS1K) sensors, antibody as analyte
T3 construct: not shown: his tag
Procedure: (§4) Buffer baseline was obtained for 30 s, and then sensors were loaded with his-tagged human CD47 (1.2 μM) for 120 s.

his-tagged human CD47 [7] = molecular target: T3, his-tagged human CD47; assay: BLI (Octet), his-tagged human CD47 loaded on anti-Penta-HIS (HIS1K) sensors, antibody as analyte
Procedure: as §4

Binder | Kd [1] | koff [2] | kon [2] | EC50 [3] | Fold increase in EC50 relative to 1-1-A1_BM [3] | binding result (human VISTA protein) | Fold increase in IC50 relative to 1-1-A1_BM [4] | IC50 [4] | Kd [5] | koff [5] | kon [5] | Kd (his-tagged human CD47 [6]) | koff (his-tagged human CD47 [7]) | kon (his-tagged human CD47 [7])
B1 | 9 nM | 0.00371 s⁻¹ | 451000 M⁻¹ s⁻¹ |  |  |  |  |  |  |  |  |  |  | 
B2 |  |  |  | 0.00018 µg/mL | 0.1 fold | no binding (tested: 0.002 µg/ml to 200 µg/ml) | 0.32 fold | 0.15 µg/mL |  |  |  |  |  | 
B3 |  |  |  | 0.00022 µg/mL | 0.12 fold | no binding (tested: 0.002 µg/ml to 200 µg/ml) |  |  | 3.39 nM | 0.000904 s⁻¹ | 266000 M⁻¹ s⁻¹ |  |  | 
B4 |  |  |  | 13.4 µg/mL | 7440 fold | no binding (tested: 0.002 µg/ml to 200 µg/ml) | > 200 fold | > 100 µg/mL | 134 nM | 0.0144 s⁻¹ | 108000 M⁻¹ s⁻¹ |  |  | 
B5 | 16.1 nM | 0.00217 s⁻¹ | 134000 M⁻¹ s⁻¹ | 0.0018 µg/mL | 1 fold | no binding (tested: 0.002 µg/ml to 200 µg/ml) | 1 fold | 0.474 µg/mL | 9.31 nM | 0.00121 s⁻¹ | 130000 M⁻¹ s⁻¹ | 10.4 nM | 0.000618 s⁻¹ | 59400 M⁻¹ s⁻¹
B6 |  |  |  | 38.1 µg/mL | 21200 fold | no binding (tested: 0.002 µg/ml to 200 µg/ml) | > 200 fold | > 100 µg/mL | 111 nM | 0.00898 s⁻¹ | 80900 M⁻¹ s⁻¹ |  |  | 
B7 |  |  |  | 23.5 µg/mL | 13100 fold | no binding (tested: 0.002 µg/ml to 200 µg/ml) | > 200 fold | > 100 µg/mL | 23.3 nM | 0.00635 s⁻¹ | 273000 M⁻¹ s⁻¹ |  |  | 
B8 |  |  |  | 0.00015 µg/mL | 0.08 fold | no binding (tested: 0.002 µg/ml to 200 µg/ml) | 0.42 fold | 0.201 µg/mL | 9.28 nM | 0.0012 s⁻¹ | 129000 M⁻¹ s⁻¹ |  |  | 
B9 |  |  |  | 36.8 µg/mL | 20400 fold | no binding (tested: 0.002 µg/ml to 200 µg/ml) | > 200 fold | > 100 µg/mL |  |  |  |  |  | 
B10 |  |  |  | 0.0021 µg/mL | 1.17 fold | no binding (tested: 0.002 µg/ml to 200 µg/ml) | 1.02 fold | 0.483 µg/mL |  |  |  |  |  | 
